Two molecules from EP4717714A1 (Shanghai Junshi Biosciences Co., Ltd., dated 2026) can be followed below.

Test [1] addresses T1, Recombinant human PD-1 (prepared by Suzhou Junmeng Biopharm Co., Ltd. according to the sequence of NCBI … (human, UniProt Q15116 25-170, limits assumed)).
T1 construct: Soluble recombinant protein used in BLI and coated in ELISA; also called antigen PD-1
The test can be described thus: indirect ELISA on coated human PD-1; stability sample, 5°C, 4 week. A general note: An ELISA detects its analyte on a solid surface through an enzyme-linked reagent.

Test [2] addresses T2, Recombinant human VEGFA (Sino Biological, catalog number 11066-HNAB) (human).
T2 construct: also called VEGF antigen; Human/Cynomolgus VEGF/VEGFA/VEGF165 Protein
T2 chain: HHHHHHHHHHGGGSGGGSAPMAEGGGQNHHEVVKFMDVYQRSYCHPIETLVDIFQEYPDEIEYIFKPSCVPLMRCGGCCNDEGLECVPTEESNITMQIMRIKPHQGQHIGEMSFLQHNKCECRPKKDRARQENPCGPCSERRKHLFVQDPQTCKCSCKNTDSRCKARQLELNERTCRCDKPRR
The test can be described thus: competitive ELISA, VEGFA coated, competitor biotinylated VEGFR2 at 0.3 µg/mL (FIG. 8b).

Test [3] has as its target T2, Recombinant human VEGFA (Sino …). The test can be described thus: BLI (Octet RED96e), antibody captured at 5 µg/mL, VEGFA at 50 and 25 nM.
Test [4] deals with T1, Recombinant human PD-1 (prepared by …). The test can be described thus: indirect ELISA on coated human PD-1; sample in human serum, 37°C, 0 week.
Test [5] addresses T2, Recombinant human VEGFA (Sino …). The test is described as follows: indirect ELISA on coated human VEGF; sample in human serum, 37°C, 0 week.
Test [6] has the same target. The test is described as follows: indirect ELISA on coated human VEGFA, relative to Avastin control.
Test [7] shares this target. The test is described as follows: BLI (Octet RED96e), told of the group. In general terms: Biolayer interferometry detects binding as a change in optical thickness at a sensor tip.
For test [8] the target is unchanged. The test is described as follows: indirect ELISA on coated human VEGF; sample in human serum, 37°C, 4 week.
For test [9] the target is unchanged. The test can be described thus: indirect ELISA on coated human VEGF; stability sample, 5°C, 4 week.
The target of test [10] is T1, Recombinant human PD-1 (prepared by …). The test can be described thus: indirect ELISA on coated human PD-1, relative to TAB001 (JS001) control.
Test [11] concerns the target T2, Recombinant human VEGFA (Sino …). The test is described as follows: cell-based or functional assay.
The target of test [12] is Human PD-1 on the cell surface (Jurkat PD-1 effector cells, Promega); CD4 T cells in the mixed lymphocyte … (human, UniProt Q15116 25-288). The test is described as follows: cell-based or functional assay.
Test [13] deals with T1, Recombinant human PD-1 (prepared by …). The test is described as follows: competitive ELISA against PD-L1 hFc on coated PD-1, relative to TAB001 (JS001) control.
Test [14] has the same target. The test can be described thus: competitive ELISA, PD-1 coated, competitor Biotin-PD-L1 hFc at 4.0 µg/mL (FIG. 9b).
For test [15] the target is unchanged. The test can be described thus: indirect ELISA on coated human PD-1; stability sample, 5°C, 0 week.
Test [16] concerns the target T2, Recombinant human VEGFA (Sino …). The test can be described thus: indirect ELISA on coated human VEGF; stability sample, 5°C, 2 week.
The target is the same in test [17]. The test is described as follows: indirect ELISA on coated human VEGF; stability sample, 5°C, 0 week.
Test [18] concerns the target T1, Recombinant human PD-1 (prepared by …). The test can be described thus: indirect ELISA on coated human PD-1; sample in human serum, 37°C, 2 week.
The target of test [19] is T2, Recombinant human VEGFA (Sino …). The test can be described thus: indirect ELISA, human VEGFA coated at 0.5 µg/mL (FIG. 7b).
The target is the same in test [20]. The test is described as follows: indirect ELISA on coated human VEGF; sample in human serum, 37°C, 2 week.
Test [21] shares this target. The test is described as follows: competitive ELISA against VEGFR2 on coated VEGFA, relative to Avastin control.
The target of test [22] is T1, Recombinant human PD-1 (prepared by …). The test can be described thus: BLI (Octet RED96e), antibody captured at 5 µg/mL, PD-1 at 210 and 70 nM.
Test [23] has the same target. The test can be described thus: indirect ELISA on coated human PD-1; sample in human serum, 37°C, 4 week.
Test [24] shares this target. The test is described as follows: indirect ELISA, human PD-1 coated at 0.3 µg/mL (FIG. 6b).
Test [25] concerns the target T2, Recombinant human VEGFA (Sino …). The test is described as follows: BLI (Octet), antibody captured at 5 µg/mL, VEGFA at 25 and 12.5 nM.

B1: Bispecific antibody molecule 27 (bispecific antibody, human IgG4 S228P, kappa)
light: DVVMTQSPLSLPVTLGQPASISCRSSQSIVHSNGNTYLEWYLQKPGQSPQLLIYKVSNRFSGVPDRFSGSGSGTDFTLKISRVEAEDVGVYYCFQGSHVPLTFGQGTKLEIKRTVAAPSVFIFPPSDEQLKSGTASVVCLLNNFYPREAKVQWKVDNALQSGNSQESVTEQDSKDSTYSLSSTLTLSKADYEKHKVYACEVTHQGLSSPVTKSFNRGEC
heavy: not shown
notes: Anti-PD-1 IgG4 (JS001) with the anti-VEGF VHH inserted between CH1 and the hinge of each heavy chain; also called Antibody 27; antibody 27 (IgG4)
By IC50 is commonly meant the concentration that inhibits the measured activity by half. The Kd is the concentration at which binding is half-saturated. Usually koff stands for a measure of how fast the partners let go of each other. What is called kon is the rate constant with which the complex forms. Broadly, the EC50 is the concentration needed to bring the measured effect to its halfway point. For the molecule B1, the “Binding activity (%), PD-1 end” value stood at 107% in [1]; 93% in test [4]; 95% in [15]; 86% in test [18]; 83% in test [23]. In addition, the figures for the IC50 in test [2] and in [14] were 3560 nM and 297 nM, respectively. Moreover, the Kd in [3] is 0.0521 nM; in test [7], below 0.5 nM; in [22], 0.864 nM. The dissociation rate constant (koff) came to 4.24e-05 s⁻¹ in test [3] and 5.57e-05 s⁻¹ in test [22]. In addition, the on-rate (kon) in test [3] is 815000 M⁻¹ s⁻¹; in test [22], 64400 M⁻¹ s⁻¹. The “Binding activity (%), VEGF end” value in [5] turned out to be 101%; in test [8], 78%; in test [9], 104%; in [16], 92%; in [17] it was 97%; in [20], 86%. The “Relative binding activity (%)” value in test [6] was determined as 53%; in test [10], 77%; in test [13], 86%; in test [21], 85%. For the same molecule, the “IC50, VEGFA-induced proliferation of HUVEC cells” value in test [11] came out at 104 nM. Moreover, the “EC50, PD-1/PD-L1 luciferase reporter gene system (Jurkat PD-1 / CHO PD-L1)” value in [12] was 16.9 nM. Further, the values for the EC50 in test [19] and in [24] were 6.62 nM and 23.8 nM, respectively.

B2: Bispecific antibody molecule 28 (bispecific antibody, human IgG4 S228P, kappa)
light: EVQLVESGGGLVQPGGSLRLSCAISGFSLAATDIDWVRQAPGKGLEWVARIFSPSDFTDYADSVKGRFTISADTSKNTVYLQMNSLRAEDTAVYYCGRPDTYAYNIFLDTPTYNALHYRGQGTLVTVSSGGGGSGGGGSGGGGSDVVMTQSPLSLPVTLGQPASISCRSSQSIVHSNGNTYLEWYLQKPGQSPQLLIYKVSNRFSGVPDRFSGSGSGTDFTLKISRVEAEDVGVYYCFQGSHVPLTFGQGTKLEIKRTVAAPSVFIFPPSDEQLKSGTASVVCLLNNFYPREAKVQWKVDNALQSGNSQESVTEQDSKDSTYSLSSTLTLSKADYEKHKVYACEVTHQGLSSPVTKSFNRGEC
heavy: not shown
notes: Anti-PD-1 IgG4 (JS001) with the anti-VEGF VHH at the N-terminus of each light chain; also called Antibody 28; antibody 28 (IgG4)
Take B2: the concentration for half-maximal inhibition (IC50) was 1860 nM in [2] and 573 nM in test [14]. The “Relative binding activity (%)” value in test [6] was 57%; in test [10], 31%; in [13] it was 45%; in [21] it was 163%. Moreover, the Kd is below 0.5 nM in [7], 0.0147 nM in test [25] and 1.67 nM in test [22]. In addition, the figures for the koff in test [25] and in test [22] were 1.88e-05 s⁻¹ and 5.96e-05 s⁻¹, respectively. In addition, the on-rate (kon) is 1.28e+06 M⁻¹ s⁻¹ in test [25] and 35800 M⁻¹ s⁻¹ in test [22]. The “IC50, VEGFA-induced proliferation of HUVEC cells” value in test [11] came out at 150 nM. Further, the “EC50, PD-1/PD-L1 luciferase reporter gene system (Jurkat PD-1 / CHO PD-L1)” value in test [12] worked out at 26.1 nM. Also, the EC50 in test [19] came out at 6.17 nM; in test [24], 59.5 nM.
